Source: US20030176665A1
Like-named read-outs stand apart in the source and are kept apart here.

How the values were obtained:
gp41 (535-681)-His6 [1] = tested on: gp41 (535-681)-His6
gp41 (535-681)-His6 [2] = biological target: gp41 (535-681)-His6; remark: listed apart in the source

C-terminally truncated SlyD from E. coli
aggregation of gp41 after shift to neutral pH (UV spectra) (gp41 (535-681)-His6 [1]): Comparable data have been obtained with ... a C-terminally truncated SlyD from E. coli

B1: FkpA from E. coli (mature FkpA) (protein)
chain: AEAAKPATAADSKAAFKNDDQKSAYALGASLGRYMENSLKEQEKLGIKLDKDQLIAGVQDAFADKSKLSDQEIEQTLQAFEARVKSSAQAKMEKDAADNEAKGKEYREKFAKEKGVKTSSTGLVYQVVEAGKGEAPKDSDTVVVNYKGTLIDGKEFDNSYTRGEPLSFRLDGVIPGWTEGLKNIKKGGKIKLVIPPELAYGKAGVPGIPPNSTLVFDVELLDVKPAPKADAKPEADAKAADSAKK
aggregation of gp41 after shift from about pH 3.5 to pH 7.4 (UV spectra after 1 and 10 minutes; 1 µM gp41 with 2 µM or 4 µM FkpA) (gp41 (535-681)-His6 [2]): FkpA substantially reduces the aggregation of gp41 in a dose-dependent fashion | suppression of aggregation (stray light in UV spectra) by a two-fold and a four-fold molar excess of the chaperone (gp41 (535-681)-His6 [2]): there is compelling spectroscopic evidence that FkpA efficiently solubilizes the gp41 ectodomain in a dose-dependent fashion

B2: trigger factor from Thermatoga maritima (protein)
chain: MEVKELERDKNRVVLEYVFGAEEIAQAEDKAVRYLNQRVEIPGFRKGRIPKNVLKMKLGEEFQEYTLDFLMDLIPDTLKDRKLILSPIVTERELKDVTARVVVEVHEEPEVRIGDISKIEVEKVDEEKVLEKYVERRIEDLRESHALLEPKEGPAEAGDLVRVNMEVYNEEGKKLTSREYEYVISEDEDRPFVKDLVGKKKGDVVEIEREYEGKKYTYKLEVEEVYKRTLPEIGDELAKSVNNEFETLEQLKESLKKEGKEIYDVEMKESMREQLLEKLPEIVEIEISDRTLEILVNEAINRLKREGRYEQIVSSYESEEKFREELKERILDDIKRDRVIEVLAQEKGISVNDEELEKEAEELAPFWGISPDRAKSLVKARQDLREELRWAILKRKVLDLLLQEVKVKVVEPKGEGDDSEGKEDN
aggregation of gp41 after shift to neutral pH (UV spectra) (gp41 (535-681)-His6 [2]): Comparable data have been obtained with trigger factor from Thermatoga maritima
